Experimental data: PMC4914113, “Another look at the mechanism involving trimeric dUTPases in Staphylococcus aureus pathogenicity island induction involves novel players in the party” (Nucleic Acids Research, 2016)

Key:
Assay in all cases: BLI; BLItz; His-tagged Dut immobilised at 1 μM on Ni-NTA biosensors, Stl in solution (at least five dilutions, 4 to 0.062 μM); buffer STL (400 mM NaCl, 75 mM HEPES pH 7.5, 5 mM MgCl2, 2 mM DTT); no nucleotide; 1:1 model
[1] = biological target: Dut80α^D81A (Staphylococcus aureus phage 80α)
[2] = biological target: Dut80α D81A D110C S168C (Staphylococcus aureus phage 80α)
[3] = biological target: Dut80α^F165A (Staphylococcus aureus phage 80α)
[4] = biological target: Dut80α^IV-11 (Staphylococcus aureus phage 80α)
[5] = biological target: Dut80α^ΔVI-IV-11 (Staphylococcus aureus phage 80α)
[6] = biological target: Dutϕ11^ΔVI-IV-80α (Staphylococcus aureus phage ϕ11)
[7] = biological target: Dutϕ11^(ΔVI F164A) (Staphylococcus aureus phage ϕ11)
[8] = biological target: Dut80α^G164S (Staphylococcus aureus phage 80α)
[9] = biological target: Dut80α^WT, wild-type dUTPase of phage 80α (Staphylococcus aureus phage 80α)
[10] = biological target: Dut80α^Y84I (Staphylococcus aureus phage 80α)
[11] = biological target: Dutϕ11^ΔV, Dutϕ11 motif V deletion mutant (Staphylococcus aureus phage ϕ11)
[12] = biological target: Dutϕ11^WT, wild-type dUTPase of phage ϕ11 (Staphylococcus aureus phage ϕ11)
[13] = biological target: Dutϕ11^IV-80α (Staphylococcus aureus phage ϕ11)

“Stl repressor from SaPIbov1 (natural protein)” showed a Kd [1] of 161 nM, a koff [1] of 0.0042 s⁻¹ and a kon [1] of 26000 M⁻¹ s⁻¹. The Kd [2] was 58.3 nM, the koff [2] was 0.0014 s⁻¹ and the kon [2] was 24000 M⁻¹ s⁻¹. The Kd [3] was 581 nM, the koff [3] was 0.0157 s⁻¹ and the kon [3] was 27000 M⁻¹ s⁻¹. For the same substance, the Kd [4] was 3.13 nM, the koff [4] was 0.00021 s⁻¹ and the kon [4] was 67000 M⁻¹ s⁻¹. It also gave a Kd [5] of 4.56 nM, a koff [5] of 0.00026 s⁻¹ and a kon [5] of 57000 M⁻¹ s⁻¹. For the same substance, the Kd [6] was > 1000 nM, the Kd [7] was 131 nM and the koff [7] was 0.0021 s⁻¹. For the same substance, the kon [7] was 16000 M⁻¹ s⁻¹, the Kd [8] was 156 nM and the koff [8] was 0.0047 s⁻¹. For the same substance, the kon [8] was 30000 M⁻¹ s⁻¹, the Kd [9] was 40 nM and the koff [9] was 0.001 s⁻¹. For the same substance, the kon [9] was 25000 M⁻¹ s⁻¹, the Kd [10] was > 1000 nM and the Kd [11] was 1.42 nM. The koff [11] was 4e-05 s⁻¹, the kon [11] was 28000 M⁻¹ s⁻¹ and the Kd [12] was 1.84 nM. For the same substance, the koff [12] was 9.2e-05 s⁻¹, the kon [12] was 50000 M⁻¹ s⁻¹ and the Kd [13] was 3.33 nM. The koff [13] was 0.00025 s⁻¹ and the kon [13] was 75000 M⁻¹ s⁻¹.
